Reference: patent US20150307610A1 (AbbVie / Abbott, published 2015)

T1: E. coli RAGE Construct #7, 6His-(Thr)-[RAGE (235-336)] (human)
T1 construct: N-terminal 6His-(Thr) tag is part of the entry; expressed in E. coli; also called RAGE protein #7
T1 chain: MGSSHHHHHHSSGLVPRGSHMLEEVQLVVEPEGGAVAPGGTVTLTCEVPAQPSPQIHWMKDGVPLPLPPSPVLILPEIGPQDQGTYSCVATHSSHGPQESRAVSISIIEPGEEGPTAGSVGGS


Assays:
[1] = molecular target: T1, E. coli RAGE Construct #7, …; experiment: binding analysis of RAGE mutants of human sRAGE expressed in E. coli
[2] = molecular target: T2, RAGE fragment coated in Fig. 4C (antigen not named on the sheet); experiment: direct ELISA: purified E. coli RAGE construct protein coated at 1 ug/mL (construct not named for this panel), mAb titrated, donkey anti-mouse HRP, TMB
T2 construct: Placeholder: the panel cannot be tied to one of m19-m25
Method: (§1) Antigens (purified construct #1-7 proteins) were diluted into Coating Buffer [100 mM NaHCO₃, pH 8.2] to 1 μg/ml, and 100 μl of the resulting solution was then aliquoted into a 96-well Nunc Immuno Plate (Maxi-Sorb Surface, flat bottom, catalog #439454). The plate was sealed with sealing film and incubated at 4° C. overnight. The next day, the plate wells were each washed 3 times with 150 μL PBST buffer [Sigma PBS+0.05% Tween 20]. Then 300 ul of blocking solution (3% NFDM in PBST) was added to each well. The plate was incubated for 2 hours at room temperature and shaking at 100 rpm. After the incubation step, each well was again washed three times with 150 uL PBST. 100 ul of the corresponding antibody to be tested (i.e. 7F9, 11E6, and 4E5) was added at various dilutions made in PBST/0.5% BSA. The plate was then sealed with sealing film and incubated for 2 hours at room temperature and shaking at 100 rpm. Next the antibody solution was drained out of the wells, and each well then washed three times with 200 ul PBST. To each well then 200 ul of a 1:5000 dilution (in PBST/1% NFDM) of conjugated secondary antibody [Donkey anti-mouse HRPO conjugate, Jackson Immuno Research, Catalog #715-035-150] was added. […] Finally, 50 μL of 2M H₂SO₄ was added to each well to stop the reaction and the […] of each well was measured using a microtiter plate reader.

[3] = molecular target: T1, E. coli RAGE Construct #7, …; experiment: ELISA, antigen coated at 1 ug/ml
Method: as §1

| binding result [1] | EC50 (read off the curve) [2] [nM] | binding result [3] | Binder |
| --- | --- | --- | --- |
| binds | ~0.03 | – | anti-human RAGE monoclonal antibody 11E6 (murine, hybridoma-derived) (antibody, V domains shown, also called mAb11E6; ML37-11E6) VH: QIQLVQSGPELKKPGETVKISCKASGYTFTNFGMNWVKQAPGKGLKWMGYINTNTGESIYSEEFKGRFAFSLETSASTAYLQINNLKNEDTATYFCARSRMVTAYGMDYWGQGTSVTVSS VL: DIVMTQSQKFMSTSVGDRVSITCKASQNVGTAVAWYQQRPGQSPKLLIFSASNRYTGVPDRFTGSGSGTDFTLTLSNMQPEDLADYFCQQYSSYPLTFGVGTKLELKR |
| – | – | binds | anti-human RAGE monoclonal antibody 4E5 (murine, hybridoma-derived) (antibody, V domains shown, also called mAb4E5; ML37-4E5) VH: QVQLQQSGAELVRPGTSVKVSCKASGYAFNNYLIEWIKQRPGQGLEWIGVINPGSGGTNHNEKFKVKATLTADKSSSTAYIQLSSLTSDDSAVYFCARSAGTARARFAYWGQGTLVTVSA VL: DIQMTQSPSSLSASLGERVSLTCRASQDIGSSLNWLQQEPDGTIKRLIYATSSLDSGVPKRFSGSRSGSDYSLTISSLESEDFVDYYCLQYASFPFTFGSGTKLEIKR |
